Assay results taken from the Immune Epitope Database (IEDB).

target: HLA-A*68:01; assay: IEDB peptide-MHC binding, purified MHC/competitive/radioactivity; ≥ and ≤ were set here for values at or beyond the usual limits of such assays; settings: source organism: Vaccinia virus WR

Row | Sequence | IC50 [nM]
1 | IVFNLPVSK | 5.4
2 | KTKNFTIDFK | 144
3 | KVMFVIRFK | 30
4 | VTSSGAIYK | 24
5 | AVFKDSFLRK | 47
6 | NQVKFYFNK | 5.8

target: HLA-B*51:01; assay: as above; settings: source organism: Vaccinia virus WR

Row | Sequence | IC50 [nM]
7 | MPAYIRNTL | 461

target: HLA-A*11:01; assay: as above; settings: source organism: Vaccinia virus WR

Row | Sequence | IC50 [nM]
8 | IVFNLPVSK | 4.6
9 | GTIAGGVCYY | 4.5
10 | KTKNFTIDFK | 22
11 | YLLVKWYRK | 3.6
12 | KVMFVIRFK | 7.3
13 | VTSSGAIYK | 3.1
14 | KLKIISNDYK | 464
15 | AVFKDSFLRK | 121
16 | NQVKFYFNK | 2.2
17 | KVLHVTDTNK | 10

target: HLA-A*02:06; assay: as above; settings: source organism: Vaccinia virus WR

Row | Sequence | IC50 [nM]
18 | NLFDIPLLTV | 1.5
19 | FLTSVINRV | 4.8
20 | ILDDNLYKV | 8.9
21 | GLNDYLHSV | 3.9
22 | FLNISWFYI | 1

target: HLA-B*40:01; assay: as above; settings: source organism: Vaccinia virus WR

Row | Sequence | IC50 [nM]
23 | TEYDDHINL | 7.5

target: HLA-A*02:02; assay: as above; settings: source organism: Vaccinia virus WR

Row | Sequence | IC50 [nM]
24 | NLFDIPLLTV | 0.1
25 | FLTSVINRV | 0.11
26 | ILDDNLYKV | 4.5
27 | GLNDYLHSV | 0.74
28 | FLNISWFYI | 0.17

target: HLA-A*30:02; assay: as above; settings: source organism: Vaccinia virus WR

Row | Sequence | IC50 [nM]
29 | VSVNNVCHMY | 3.7
30 | FLSMLNLTKY | 500
31 | VTDTNKFDNY | 256
32 | QSITRSLIY | 291
33 | DMCDIYLLY | 55
34 | SQSDTVFDY | 2.3

target: HLA-A*31:01; assay: as above; settings: source organism: Vaccinia virus WR

Row | Sequence | IC50 [nM]
35 | IVFNLPVSK | 23
36 | KTKNFTIDFK | 14
37 | YLLVKWYRK | 45
38 | KVMFVIRFK | 4.9
39 | KLKIISNDYK | 137
40 | NQVKFYFNK | 15
41 | KVLHVTDTNK | 466

target: HLA-B*35:01; assay: as above; settings: source organism: Vaccinia virus WR

Row | Sequence | IC50 [nM]
42 | MPAYIRNTL | 19
43 | HPRHYATVM | 63

target: HLA-B*07:02; assay: as above; settings: source organism: Vaccinia virus WR

Row | Sequence | IC50 [nM]
44 | KPKPAVRFAI | 0.18
45 | MPAYIRNTL | 0.53
46 | RPMSLRSTII | 0.43
47 | HPRHYATVM | 0.87

target: HLA-A*68:02; assay: as above; settings: source organism: Vaccinia virus WR

Row | Sequence | IC50 [nM]
48 | NLFDIPLLTV | 8.1
49 | FLTSVINRV | 0.42
50 | FLNISWFYI | 240

target: HLA-A*26:01; assay: as above; settings: source organism: Vaccinia virus WR

Row | Sequence | IC50 [nM]
51 | FTIDFKLKY | 21
52 | DMCDIYLLY | 82

target: HLA-A*29:02; assay: as above; settings: source organism: Vaccinia virus WR

Row | Sequence | IC50 [nM]
53 | FLSMLNLTKY | 154
54 | FTIDFKLKY | 1.4
55 | QSITRSLIY | 295
56 | DMCDIYLLY | 89
57 | VWINNSWKF | 4.9

target: HLA-A*03:01; assay: as above; settings: source organism: Vaccinia virus WR

Row | Sequence | IC50 [nM]
58 | IVFNLPVSK | 2.2
59 | GTIAGGVCYY | 132
60 | KTKNFTIDFK | 11
61 | YLLVKWYRK | 5.6
62 | KVMFVIRFK | 1.4
63 | VTSSGAIYK | 10
64 | KLKIISNDYK | 4.5
65 | AVFKDSFLRK | 8.2
66 | NQVKFYFNK | 192
67 | KVLHVTDTNK | 8.1

target: HLA-A*23:01; assay: as above; settings: source organism: Vaccinia virus WR

Row | Sequence | IC50 [nM]
68 | RYRFAFLYLL | 41
69 | VWINNSWKF | 5.3

target: HLA-B*40:02; assay: as above; settings: source organism: Vaccinia virus WR

Row | Sequence | IC50 [nM]
70 | TEYDDHINL | 108

target: HLA-A*33:01; assay: as above; settings: source organism: Vaccinia virus WR

Row | Sequence | IC50 [nM]
71 | YLLVKWYRK | 114

target: HLA-B*54:01; assay: as above; settings: source organism: Vaccinia virus WR

Row | Sequence | IC50 [nM]
72 | MPAYIRNTL | 3.4
73 | RPMSLRSTII | 265

target: HLA-A*24:02; assay: as above; settings: source organism: Vaccinia virus WR

Row | Sequence | IC50 [nM]
74 | RYRFAFLYLL | 166
75 | VWINNSWKF | 6.4

target: HLA-B*53:01; assay: as above; settings: source organism: Vaccinia virus WR

Row | Sequence | IC50 [nM]
76 | MPAYIRNTL | 49

target: HLA-A*01:01; assay: as above; settings: source organism: Vaccinia virus WR

Row | Sequence | IC50 [nM]
77 | VSVNNVCHMY | 130
78 | FLSMLNLTKY | 267
79 | VTDTNKFDNY | 1.6
80 | FTIDFKLKY | 60
81 | QSITRSLIY | 74
82 | DMCDIYLLY | 28
83 | QSDTVFDYY | 1
84 | FGDSKEPVPY | 137

target: HLA-B*18:01; assay: as above; settings: source organism: Vaccinia virus WR

Row | Sequence | IC50 [nM]
85 | DELVDPINY | 16

target: HLA-A*02:03; assay: as above; settings: source organism: Vaccinia virus WR

Row | Sequence | IC50 [nM]
86 | NLFDIPLLTV | 0.25
87 | FLTSVINRV | 1.4
88 | ILDDNLYKV | 61
89 | GLNDYLHSV | 1.4
90 | FLNISWFYI | 0.33

target: HLA-A*68:01; assay: IEDB peptide-MHC binding, purified MHC/competitive/radioactivity; filed as Kd, often an IC50 or EC50 that approximates it; ≥ and ≤ were set here for values at or beyond the usual limits of such assays; settings: source organism: Vaccinia virus WR

Row | Sequence | Kd [nM]
91 | GTIAGGVCYY | 11100
92 | YLLVKWYRK | ≥ 50000
93 | KLKIISNDYK | ≥ 50000
94 | KVLHVTDTNK | 3020

target: HLA-B*51:01; assay: as above; settings: source organism: Vaccinia virus WR

Row | Sequence | Kd [nM]
95 | KPKPAVRFAI | ≥ 50000
96 | RPMSLRSTII | 9620
97 | HPRHYATVM | 14700

target: HLA-A*02:06; assay: as above; settings: source organism: Vaccinia virus WR

Row | Sequence | Kd [nM]
98 | SMHFYGWSL | 2040

target: HLA-B*40:01; assay: as above; settings: source organism: Vaccinia virus WR

Row | Sequence | Kd [nM]
99 | DELVDPINY | 529

target: HLA-A*30:02; assay: as above; settings: source organism: Vaccinia virus WR

Row | Sequence | Kd [nM]
100 | FTIDFKLKY | 1050
101 | QSDTVFDYY | 2950
102 | FGDSKEPVPY | 8170

target: HLA-B*45:01; assay: as above; settings: source organism: Vaccinia virus WR

Row | Sequence | Kd [nM]
103 | TEYDDHINL | 7790
104 | DELVDPINY | 12400

target: HLA-B*44:02; assay: as above; settings: source organism: Vaccinia virus WR

Row | Sequence | Kd [nM]
105 | TEYDDHINL | 913
106 | DELVDPINY | 14300

target: HLA-A*31:01; assay: as above; settings: source organism: Vaccinia virus WR

Row | Sequence | Kd [nM]
107 | GTIAGGVCYY | 8450
108 | VTSSGAIYK | 3970
109 | AVFKDSFLRK | 686

target: HLA-B*35:01; assay: as above; settings: source organism: Vaccinia virus WR

Row | Sequence | Kd [nM]
110 | KPKPAVRFAI | ≥ 36300
111 | RPMSLRSTII | ≥ 45900

target: HLA-A*68:02; assay: as above; settings: source organism: Vaccinia virus WR

Row | Sequence | Kd [nM]
112 | ILDDNLYKV | ≥ 48300
113 | GLNDYLHSV | 2660

target: HLA-A*26:01; assay: as above; settings: source organism: Vaccinia virus WR

Row | Sequence | Kd [nM]
114 | VSVNNVCHMY | 4260
115 | FLSMLNLTKY | 7830
116 | VTDTNKFDNY | ≥ 50000
117 | QSITRSLIY | 4980
118 | SQSDTVFDY | 1860
119 | QSDTVFDYY | ≥ 50000
120 | FGDSKEPVPY | 5680

target: HLA-A*29:02; assay: as above; settings: source organism: Vaccinia virus WR

Row | Sequence | Kd [nM]
121 | VSVNNVCHMY | 1080
122 | RYRFAFLYLL | 16200
123 | VTDTNKFDNY | ≥ 50000
124 | SQSDTVFDY | 844
125 | QSDTVFDYY | ≥ 50000
126 | FGDSKEPVPY | 564

target: HLA-B*40:02; assay: as above; settings: source organism: Vaccinia virus WR

Row | Sequence | Kd [nM]
127 | DELVDPINY | 13300

target: HLA-A*33:01; assay: as above; settings: source organism: Vaccinia virus WR

Row | Sequence | Kd [nM]
128 | IVFNLPVSK | 3170
129 | GTIAGGVCYY | ≥ 38600
130 | KTKNFTIDFK | ≥ 40400
131 | KVMFVIRFK | 857
132 | VTSSGAIYK | ≥ 21400
133 | KLKIISNDYK | ≥ 50000
134 | AVFKDSFLRK | ≥ 42400
135 | NQVKFYFNK | 822
136 | KVLHVTDTNK | ≥ 50000

target: HLA-B*54:01; assay: as above; settings: source organism: Vaccinia virus WR

Row | Sequence | Kd [nM]
137 | KPKPAVRFAI | 680
138 | HPRHYATVM | 4380

target: HLA-B*44:03; assay: as above; settings: source organism: Vaccinia virus WR

Row | Sequence | Kd [nM]
139 | TEYDDHINL | 1200
140 | DELVDPINY | 2670

target: HLA-B*53:01; assay: as above; settings: source organism: Vaccinia virus WR

Row | Sequence | Kd [nM]
141 | KPKPAVRFAI | ≥ 20500
142 | RPMSLRSTII | 1230
143 | HPRHYATVM | 3060

target: HLA-A*01:01; assay: as above; settings: source organism: Vaccinia virus WR

Row | Sequence | Kd [nM]
144 | SQSDTVFDY | 3020

target: HLA-B*18:01; assay: as above; settings: source organism: Vaccinia virus WR

Row | Sequence | Kd [nM]
145 | TEYDDHINL | 645
